Source: article doi:10.1101/596536

Experiments:
[1] = target: TcdB2-TccC3 from Photorhabdus luminescens (Pl-TcdB2-TccC3) (P. luminescens) (UniProt Q8GF99); assay: BLI
[2] = target: XptA1 from Xenorhabdus nematophila (Xn-XptA1) (X. nematophila); assay: cryo-EM structure
[3] = target: TcdA1 from Photorhabdus luminescens (Pl-TcdA1) (P. luminescens) (UniProt Q9RN43); assay: cryo-EM structure
[4] = target: TcdA4 from Photorhabdus luminescens (Pl-TcdA4) (P. luminescens) (UniProt Q8GF92); assay: cryo-EM structure
[5] = target: TcdA4 from Morganella morganii (Mm-TcdA4) (M. morganii); assay: cryo-EM structure

| Substance | Kd [1] | stoichiometry N [2] | stoichiometry N [3] | stoichiometry N [4] | stoichiometry N [5] |
| --- | --- | --- | --- | --- | --- |
| XptA1 from Xenorhabdus nematophila (Xn-XptA1) (natural protein) | 1.99 nM | 5 | – | – | – |
| TcdA1 from Photorhabdus luminescens (Pl-TcdA1), Q9RN43 1-2516 | 0.63 nM | – | 5 | – | – |
| TcdA4 from Photorhabdus luminescens (Pl-TcdA4), Q8GF92 1-2381 | – | – | – | 5 | – |
| TcdA4 from Morganella morganii (Mm-TcdA4) (natural protein) | 11.3 nM | – | – | – | 5 |
